Patent publication US20140087995A1 (published 2014)
Numbered stars: 1 amine (or outer) side, 2 acyl side, 3 side chain; on linkers, the order of the positions; unused ones are H or OH. Bridge positions count the residues as written; N and C are the ends. Side chains are listed from the residue outwards. Ends that are not written are not given here. * marks the point of attachment. C20 diacid = O=C(O)CCCCCCCCCCCCCCCCCCC(=O)*; γGlu = O=C(O)[C@H](CCC(=O)[*:2])N[*:1]; AEEA = NCCOCCOCC(=O)O

T1: human amylin receptor (amylin 3(a) receptor: human calcitonin receptor co-expressed with RAMP-3) (human, UniProt P30988 25-474; O60896 24-148, limits assumed)
T1 sequence (looked up) 1: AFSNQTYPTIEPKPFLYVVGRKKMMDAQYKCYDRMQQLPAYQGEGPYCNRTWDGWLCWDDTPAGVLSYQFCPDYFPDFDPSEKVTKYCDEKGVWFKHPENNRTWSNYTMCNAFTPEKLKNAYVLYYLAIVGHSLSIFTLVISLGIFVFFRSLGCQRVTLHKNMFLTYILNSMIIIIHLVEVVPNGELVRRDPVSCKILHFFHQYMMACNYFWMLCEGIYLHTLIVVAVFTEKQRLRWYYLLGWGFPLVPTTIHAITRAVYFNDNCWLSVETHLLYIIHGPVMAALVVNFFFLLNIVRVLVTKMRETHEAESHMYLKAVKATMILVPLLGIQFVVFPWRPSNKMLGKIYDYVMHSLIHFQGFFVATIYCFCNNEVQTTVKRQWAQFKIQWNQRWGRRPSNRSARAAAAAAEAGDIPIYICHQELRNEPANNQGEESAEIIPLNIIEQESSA
T1 sequence (looked up) 2: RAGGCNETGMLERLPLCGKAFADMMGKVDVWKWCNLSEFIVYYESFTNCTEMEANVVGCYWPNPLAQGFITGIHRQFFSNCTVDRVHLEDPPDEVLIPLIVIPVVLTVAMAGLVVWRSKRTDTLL

T2: human calcitonin receptor (human, UniProt P30988 25-474)
T2 sequence (looked up): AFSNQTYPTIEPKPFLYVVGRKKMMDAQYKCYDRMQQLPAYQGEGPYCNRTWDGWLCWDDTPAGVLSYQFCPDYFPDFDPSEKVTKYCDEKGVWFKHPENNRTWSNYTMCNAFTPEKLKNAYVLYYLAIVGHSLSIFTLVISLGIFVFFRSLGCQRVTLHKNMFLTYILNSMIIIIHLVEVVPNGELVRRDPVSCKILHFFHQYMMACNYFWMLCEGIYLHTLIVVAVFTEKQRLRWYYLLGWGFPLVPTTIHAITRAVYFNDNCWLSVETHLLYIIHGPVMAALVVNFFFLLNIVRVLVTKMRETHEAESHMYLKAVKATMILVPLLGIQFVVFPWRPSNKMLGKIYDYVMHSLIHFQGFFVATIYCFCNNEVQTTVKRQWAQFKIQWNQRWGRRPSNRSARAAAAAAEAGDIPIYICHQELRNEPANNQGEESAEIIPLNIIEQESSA


Assays:
[1] = biological target: T1, human amylin receptor (amylin 3(a) …); assay: cell-based or functional assay
[2] = biological target: T2, human calcitonin receptor; assay: cell-based or functional assay

Binder	hAmylin-R funct. EC50 [1] [nM]	hCTR funct. EC50 [2] [nM]
K([AEEA-γGlu-C20 diacid])CNTATCATQRLANFLRHSSPNFGAIPPSTNVGPNTY-NH2 (disulfide 2-7; N-terminus assumed; SMILES CC[C@H](C)[C@H](NC(=O)[C@H](C)NC(=O)CNC(=O)[C@H](Cc1ccccc1)NC(=O)[C@H](CC(N)=O)NC(=O)[C@@H]1CCCN1C(=O)[C@H](CO)NC(=O)[C@H](CO)NC(=O)[C@H](Cc1c[nH]cn1)NC(=O)[C@H](CCCNC(=N)N)NC(=O)[C@H](CC(C)C)NC(=O)[C@H](Cc1ccccc1)NC(=O)[C@H](CC(N)=O)NC(=O)[C@H](C)NC(=O)[C@H](CC(C)C)NC(=O)[C@H](CCCNC(=N)N)NC(=O)[C@H](CCC(N)=O)NC(=O)[C@@H](NC(=O)[C@H](C)NC(=O)[C@@H]1CSSC[C@H](NC(=O)[C@@H](N)CCCCNC(=O)COCCOCCNC(=O)CC[C@H](NC(=O)CCCCCCCCCCCCCCCCCCC(=O)O)C(=O)O)C(=O)N[C@@H](CC(N)=O)C(=O)N[C@@H]([C@@H](C)O)C(=O)N[C@@H](C)C(=O)N[C@@H]([C@@H](C)O)C(=O)N1)[C@@H](C)O)C(=O)N1CCC[C@H]1C(=O)N1CCC[C@H]1C(=O)N[C@@H](CO)C(=O)N[C@H](C(=O)N[C@@H](CC(N)=O)C(=O)N[C@H](C(=O)NCC(=O)N1CCC[C@H]1C(=O)N[C@@H](CC(N)=O)C(=O)N[C@H](C(=O)N[C@@H](Cc1ccc(O)cc1)C(N)=O)[C@@H](C)O)C(C)C)[C@@H](C)O, also called compound 55)	0.068	0.731
K([AEEA-γGlu-C20 diacid])CNTATCATQRLANFLRHSSPNFGAIPSPTNVGPNTY-NH2 (disulfide 2-7; N-terminus assumed; SMILES CC[C@H](C)[C@H](NC(=O)[C@H](C)NC(=O)CNC(=O)[C@H](Cc1ccccc1)NC(=O)[C@H](CC(N)=O)NC(=O)[C@@H]1CCCN1C(=O)[C@H](CO)NC(=O)[C@H](CO)NC(=O)[C@H](Cc1c[nH]cn1)NC(=O)[C@H](CCCNC(=N)N)NC(=O)[C@H](CC(C)C)NC(=O)[C@H](Cc1ccccc1)NC(=O)[C@H](CC(N)=O)NC(=O)[C@H](C)NC(=O)[C@H](CC(C)C)NC(=O)[C@H](CCCNC(=N)N)NC(=O)[C@H](CCC(N)=O)NC(=O)[C@@H](NC(=O)[C@H](C)NC(=O)[C@@H]1CSSC[C@H](NC(=O)[C@@H](N)CCCCNC(=O)COCCOCCNC(=O)CC[C@H](NC(=O)CCCCCCCCCCCCCCCCCCC(=O)O)C(=O)O)C(=O)N[C@@H](CC(N)=O)C(=O)N[C@@H]([C@@H](C)O)C(=O)N[C@@H](C)C(=O)N[C@@H]([C@@H](C)O)C(=O)N1)[C@@H](C)O)C(=O)N1CCC[C@H]1C(=O)N[C@@H](CO)C(=O)N1CCC[C@H]1C(=O)N[C@H](C(=O)N[C@@H](CC(N)=O)C(=O)N[C@H](C(=O)NCC(=O)N1CCC[C@H]1C(=O)N[C@@H](CC(N)=O)C(=O)N[C@H](C(=O)N[C@@H](Cc1ccc(O)cc1)C(N)=O)[C@@H](C)O)C(C)C)[C@@H](C)O, also called compound 56)	0.102	0.506
K([AEEA-γGlu-C20 diacid])CNTATCATQRLANFLRHSSPNFGAIPSSTPVGSHTY-NH2 (disulfide 2-7; N-terminus assumed; SMILES CC[C@H](C)[C@H](NC(=O)[C@H](C)NC(=O)CNC(=O)[C@H](Cc1ccccc1)NC(=O)[C@H](CC(N)=O)NC(=O)[C@@H]1CCCN1C(=O)[C@H](CO)NC(=O)[C@H](CO)NC(=O)[C@H](Cc1c[nH]cn1)NC(=O)[C@H](CCCNC(=N)N)NC(=O)[C@H](CC(C)C)NC(=O)[C@H](Cc1ccccc1)NC(=O)[C@H](CC(N)=O)NC(=O)[C@H](C)NC(=O)[C@H](CC(C)C)NC(=O)[C@H](CCCNC(=N)N)NC(=O)[C@H](CCC(N)=O)NC(=O)[C@@H](NC(=O)[C@H](C)NC(=O)[C@@H]1CSSC[C@H](NC(=O)[C@@H](N)CCCCNC(=O)COCCOCCNC(=O)CC[C@H](NC(=O)CCCCCCCCCCCCCCCCCCC(=O)O)C(=O)O)C(=O)N[C@@H](CC(N)=O)C(=O)N[C@@H]([C@@H](C)O)C(=O)N[C@@H](C)C(=O)N[C@@H]([C@@H](C)O)C(=O)N1)[C@@H](C)O)C(=O)N1CCC[C@H]1C(=O)N[C@@H](CO)C(=O)N[C@@H](CO)C(=O)N[C@H](C(=O)N1CCC[C@H]1C(=O)N[C@H](C(=O)NCC(=O)N[C@@H](CO)C(=O)N[C@@H](Cc1c[nH]cn1)C(=O)N[C@H](C(=O)N[C@@H](Cc1ccc(O)cc1)C(N)=O)[C@@H](C)O)C(C)C)[C@@H](C)O, also called compound 57)	0.089	3.12
K([AEEA-γGlu-C20 diacid])CNTATCATQRLANFLRHSSPNFGAIPSSTNVGPHTY-NH2 (disulfide 2-7; N-terminus assumed; SMILES CC[C@H](C)[C@H](NC(=O)[C@H](C)NC(=O)CNC(=O)[C@H](Cc1ccccc1)NC(=O)[C@H](CC(N)=O)NC(=O)[C@@H]1CCCN1C(=O)[C@H](CO)NC(=O)[C@H](CO)NC(=O)[C@H](Cc1c[nH]cn1)NC(=O)[C@H](CCCNC(=N)N)NC(=O)[C@H](CC(C)C)NC(=O)[C@H](Cc1ccccc1)NC(=O)[C@H](CC(N)=O)NC(=O)[C@H](C)NC(=O)[C@H](CC(C)C)NC(=O)[C@H](CCCNC(=N)N)NC(=O)[C@H](CCC(N)=O)NC(=O)[C@@H](NC(=O)[C@H](C)NC(=O)[C@@H]1CSSC[C@H](NC(=O)[C@@H](N)CCCCNC(=O)COCCOCCNC(=O)CC[C@H](NC(=O)CCCCCCCCCCCCCCCCCCC(=O)O)C(=O)O)C(=O)N[C@@H](CC(N)=O)C(=O)N[C@@H]([C@@H](C)O)C(=O)N[C@@H](C)C(=O)N[C@@H]([C@@H](C)O)C(=O)N1)[C@@H](C)O)C(=O)N1CCC[C@H]1C(=O)N[C@@H](CO)C(=O)N[C@@H](CO)C(=O)N[C@H](C(=O)N[C@@H](CC(N)=O)C(=O)N[C@H](C(=O)NCC(=O)N1CCC[C@H]1C(=O)N[C@@H](Cc1c[nH]cn1)C(=O)N[C@H](C(=O)N[C@@H](Cc1ccc(O)cc1)C(N)=O)[C@@H](C)O)C(C)C)[C@@H](C)O, also called compound 58)	0.047	1.03
K([AEEA-γGlu-C20 diacid])CNTATCATQRLAGFLRHSSPNFGAIPSSTPVGSNTY-NH2 (disulfide 2-7; N-terminus assumed; SMILES CC[C@H](C)[C@H](NC(=O)[C@H](C)NC(=O)CNC(=O)[C@H](Cc1ccccc1)NC(=O)[C@H](CC(N)=O)NC(=O)[C@@H]1CCCN1C(=O)[C@H](CO)NC(=O)[C@H](CO)NC(=O)[C@H](Cc1c[nH]cn1)NC(=O)[C@H](CCCNC(=N)N)NC(=O)[C@H](CC(C)C)NC(=O)[C@H](Cc1ccccc1)NC(=O)CNC(=O)[C@H](C)NC(=O)[C@H](CC(C)C)NC(=O)[C@H](CCCNC(=N)N)NC(=O)[C@H](CCC(N)=O)NC(=O)[C@@H](NC(=O)[C@H](C)NC(=O)[C@@H]1CSSC[C@H](NC(=O)[C@@H](N)CCCCNC(=O)COCCOCCNC(=O)CC[C@H](NC(=O)CCCCCCCCCCCCCCCCCCC(=O)O)C(=O)O)C(=O)N[C@@H](CC(N)=O)C(=O)N[C@@H]([C@@H](C)O)C(=O)N[C@@H](C)C(=O)N[C@@H]([C@@H](C)O)C(=O)N1)[C@@H](C)O)C(=O)N1CCC[C@H]1C(=O)N[C@@H](CO)C(=O)N[C@@H](CO)C(=O)N[C@H](C(=O)N1CCC[C@H]1C(=O)N[C@H](C(=O)NCC(=O)N[C@@H](CO)C(=O)N[C@@H](CC(N)=O)C(=O)N[C@H](C(=O)N[C@@H](Cc1ccc(O)cc1)C(N)=O)[C@@H](C)O)C(C)C)[C@@H](C)O, also called compound 71)	0.056	0.527
